Assay results published in patent US6878521B1, “Fibril-blocking peptide, a method for preventing fibril formation” (The University of Chicago, priority 1999, dated 2005).
“Also recorded” adds a separate entry of the source. Where a SMILES comes first, the peptide text is derived from it. [ ]: non-standard residue; d: D form. Nle = CCCC[C@H](N)C(=O)O

Key:
[1] = biological target: T1, SMA (kappa-IV recombinant VL) (Homo sapiens, UniProt P06312, K56R/P66L/Q115H/T120H); experiment: agitation-based in vitro SMA fibril formation assay (fluorescence); format: biochemical; conditions: for inhibition of SMA fibril formation: in vitro, result in words
T1 construct: two kappa-IV recombinant VL, LEN and SMA; made in house
Description: Further, the inventors used an agitation-based in vitro assay to assemble fibrils from two kappa-IV recombinant VL, LEN and SMA.
Fibril formation was measured over time at each peptide concentration. The extent of SMA fibril formation at 45 hours in the presence of various concentration so fthe peptides is plotted relative to that of SMA alone at 45 hours.
In the BiP reactions, SMA fibril formation was assayed in the range of 1 to 1000 moles SMA per mole of fibril antagonist.

[2] = test system: SMA LC expressed in COS cells; experiment: aggresome formation in SMA-transfected COS cells, immunofluorescence; format: cell-based; conditions: for cells exhibiting aggresomes: anti-kappa stained cells, peptides added with ALLN; for proportion of COS cells containing aggresomes: SMA-transfected, immunofluorescence, Hsp70 co-expressed, with or without ALLN
Description: COS-1 cells were transiently transfected with FuGENE 6 transfection reagent (Roche Molecular Biochemicals, Indianapolis, Ind.) according to manufacturer's instructions and analyzed two days later. Overnight incubations with various concentrations of ALLN (SEQ. ID. NO. 11) (Sigma Chemical Co., St. Louis, Mo.), 10 μM lactacystin (Calbiochem, La Jolla, Calif.), 10 μg/ml nocodazole (Sigma), or various concentrations of peptides were begun the day following transfection.
A peptide was synthesized that fused an HIV TAT sequence (YGRKKRRQRRR) (SEQ. ID. NO. 8) with the VL derived sequence which the inventors have shown inhibit fiber formation in vitro, discussed supra. To ensure adequate flexibility and solubility, additional VL sequence was added on both sides of the active 7-mer, generating the following sequence for the TAT-TISS peptide: NH2-[…]-OH. (SEQ. ID. NO. 9) A control peptide was synthesized (TAT-PASS) in which the critical hydrophobic residues were substituted with alanines and the extended structure of the peptide destroyed by the addition of a proline (NH2-[…]-OH). (SEQ. ID. NO. 10) cells were treated with either peptide 24 h after transfection and incubated overnight in the presence of the indicated concentrations of ALLN. (SEQ. ID. NO. […]) Cells were then harvested for western blotting or immunofluorescence as described above.
Without ALLN (SEQ. ID. NO. 11) treatment 30% of the COS cells contained aggresomes as assayed by immunofluorescence.
Lastly, the inventors determined that the decrease in steady state level of SMA in the presence of TAT-TISS (SEQ. ID. NO. 9) peptide correlated with a decrease in the frequency of aggresome formation, by scoring anti-kappa stained cells.

[3] = test system: SMA LC expressed in COS-1 cells; experiment: biochemical assay of soluble and insoluble SMA in transfected COS-1 cells (western blot); format: cell-based; conditions: for amount of SMA recovered: 50 μM peptide, overnight, 1-10 μg/ml ALLN; for intracellular aggregation of SMA: in cells, result in words
[4] = biological target: SMA, recombinant kappa-IV light chain variable domain (VL) (human); experiment: cell-based or functional assay
SMA = experiment: co-immunoprecipitation with SMA using anti-kappa antibody; format: binding, human; conditions: co-transfected, metabolically labeled cells, soluble fractions
Description: Culture, metabolic labeling, lysis and immunoprecipitation of COS-1 cells were performed as described in Dul et al. Immunol. […] The following antibodies were used in immunoprecipitations: rabbit anti-human kappa antibody (Bethyl Labs, Montgomery, Tex.); goat anti-human kappa (Caltag, Burlingame, Calif.); mouse anti-ubiquitin (StressGen, Victoria, BC, Canada).
Endogenous Hsp70 was also associated with SMA, but was not dramatically enriched.

λ6 VL protein = experiment: in vitro fibril assembly of λ6 VL protein; format: biochemical
transthyretin = transthyretin (Homo sapiens, UniProt P02766); conditions: Peterson et al. 1998; cited from earlier work

Sequence of BiP (binding protein), endoplasmic reticulum chaperone, recombinant wild type (P07823 19-654): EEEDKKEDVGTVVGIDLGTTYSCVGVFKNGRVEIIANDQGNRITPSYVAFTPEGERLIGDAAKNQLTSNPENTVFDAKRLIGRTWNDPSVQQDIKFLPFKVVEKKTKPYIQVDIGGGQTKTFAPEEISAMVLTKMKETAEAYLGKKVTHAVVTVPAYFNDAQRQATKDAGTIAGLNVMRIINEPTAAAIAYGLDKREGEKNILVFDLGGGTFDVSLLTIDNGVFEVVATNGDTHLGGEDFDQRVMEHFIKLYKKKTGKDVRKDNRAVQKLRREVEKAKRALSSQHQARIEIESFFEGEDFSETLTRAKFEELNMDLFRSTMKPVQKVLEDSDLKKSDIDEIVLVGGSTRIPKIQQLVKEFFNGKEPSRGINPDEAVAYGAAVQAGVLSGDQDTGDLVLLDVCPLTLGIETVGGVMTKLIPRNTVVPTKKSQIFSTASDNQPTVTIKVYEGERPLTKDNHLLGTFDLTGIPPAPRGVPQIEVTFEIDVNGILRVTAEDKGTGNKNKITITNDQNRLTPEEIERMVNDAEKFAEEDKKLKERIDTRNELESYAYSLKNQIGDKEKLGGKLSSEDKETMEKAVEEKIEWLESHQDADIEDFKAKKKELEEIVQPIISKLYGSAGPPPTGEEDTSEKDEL

albumin [reference compound]
inhibition of SMA fibril formation [1]: did not significantly decrease fibril formation

H-YGRKKRRQRRRSGSGTDATAPASSLQAED-OH [TAT-PASS, reference compound]
inhibition of SMA fibril formation [1]: does not inhibit fibril formation in vitro
cells exhibiting aggresomes [2]: no significant effect
effect on yield of SMA ([3]; 10 μg/ml ALLN, highest peptide concentration used): only a marginal effect
amount of SMA recovered [3]: no effect

TDFTLTI
inhibition of SMA fibril formation [1]: markedly inhibited the aggregation

FTLTISS [Phe71-Thr72-Leu73-Thr74-Ile75-Ser76-Ser77, peptide of positions 71 through 77 of human kappa-4 light chain variable domain]
inhibition of SMA fibril formation [1]: fibril blocking; also recorded: markedly inhibited the aggregation
intracellular aggregation of SMA [3]: effective in reducing intracellular aggregation

TRIFSKL [reference compound]
inhibition of SMA fibril formation [1]: ineffective fibril blocker

BiP (binding protein), endoplasmic reticulum chaperone, recombinant wild type
SMA fibril formation (fluorescence units) at 30 SMA:1 BiP [4]: < 10 percent
SMA fibril formation (fluorescence) at 100:1 stoichiometric ratio [4]: 75 percent
SMA fibril formation (fluorescence) at 300:1 stoichiometric ratio [4]: 100 percent
inhibition of SMA ordered aggregation at 75 hours, 1 mole BiP per 100 moles SMA [4]: 50%

CCCC[C@@H](C=O)NC(=O)[C@H](CC(C)C)NC(=O)[C@H](CC(C)C)NC(C)=O [ALLN, reference compound] (Ac-Leu-Leu-[Nle]-aldehyde)
proportion of COS cells containing aggresomes [2]: 75%
cells exhibiting aggresomes [2]: about 65%

PKLLIYWA
inhibition of SMA fibril formation [1]: partial inhibition

ferritin [reference compound]
inhibition of SMA fibril formation [1]: did not significantly decrease fibril formation

H-YGRKKRRQRRRSGSGTDFTLTISSLQAED-OH [TAT-TISS]
cells exhibiting aggresomes [2]: 25%
ubiquitinated forms of SMA [3]: diminished
amount of SMA recovered [3]: dramatically reduced

Hsp70: heat shock protein 70, a family member of BiP; cytosolic chaperone
inhibition of SMA fibril formation [1]: blocked fibril formation
inhibition of SMA fibril formation ([1]; listed as heat shock protein (hsp)70): did inhibit fibril formation
proportion of COS cells containing aggresomes [2]: 12%
frequency of aggresome formation ([2]; co-expression with SMA, result in words): decreases the frequency of aggresome formation
ubiquitinated forms of SMA [3]: decrease in the pool of ubiquitinated SMA
intracellular aggregation of SMA [3]: decreases its aggregation
association with SMA by co-immunoprecipitation (SMA): specifically co-immunoprecipitated with SMA

FTLKISR
inhibition of SMA fibril formation [1]: inhibited as well as FTLTISS
inhibition of fibril assembly of λ6 VL protein (λ6 VL protein): inhibited fibril assembly

FYQLALT [reference compound]
effect of prebinding BiP with peptide on BiP's suppression of fibril assembly ([1]; BiP incubated with peptide before aggregation reaction): blocked the chaperone's ability to suppress fibril assembly

Lysozyme [reference compound]
inhibition of SMA fibril formation [1]: no appreciable fibril blocking ability
inhibition of SMA fibril formation ([1]; listed as lysozome): did not significantly decrease fibril formation

O=C(O)c1ccccc1Nc1cccc(C(F)(F)F)c1 [flufenamic acid]
inhibition of conformational changes of transthyretin (transthyretin): inhibits the conformational changes
